Data reported in the supplement of paper PMC7877785.
± gives the uncertainty stated by the source.

Experiment: self-splicing fitness, log relative to wild type (ln ratio); higher = more splicing; Tetrahymena group I intron in knt gene, E. coli kanamycin selection, DiMSum; sequences stand for … in CUCUCU…GGAGGGAAAAGUUAUCAGGCAUGCACCUGGUAGCUAGUCUUUAAACCAAUAGAUUGCAUCGGUUUAAAAGGCAAGACCGUCAAAUUGCGGGAAAGGGGUCAACAGCCGUUCAGUACCAAGUCUCAGGGGAAACUUUGAGAUGGCCUUGCAAAGGGUAUGGUAAUAAGCUGACGGACAUGGUCCUAACCACGCAGCCAAGUCCUAAGUCAACAGAUCUUCUGUUGAUAUGGAUGCAGUUCACAGACUAAAUGUCGGUCGGGGAAGAUGUAUUCUUCUCAUAAGAUAUAGUCGGACCUCUCCUUAAUGGGAGCUAGCGGAUGAAGUGAUGCAACACUGGAGCCGCUGGGAACUAAUUUGUAUGCGAAAGUAUAUUGAUUAGUUUUGGAGUACUCGUGGUCG
Summary of the method: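 The eight P1ex-region nucleotides of an intron in the knt kanamycin-resistance gene on pET-22b(+) were all randomised and the library put into E. coli BL21(DE3). Six replicate transformations were grown overnight at 37°C or 30°C on LB agar with or without 25 μg/mL kanamycin, together with 100 μg/mL carbenicillin, 50 μM IPTG and 0.2% rhamnose. Colonies were pooled and amplicon-sequenced on an Illumina HiSeq 2500. Fitness from DiMSum is the error-weighted combination of wild-type-normalised replicate fold changes, kanamycin over none.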

Sequence | self-splicing fitness (ln) (30 °C) | self-splicing fitness (ln) (37 °C)
GAGUAGCAAUAUUACGGAAG | -3.65 ± 0.23 | -2.71 ± 0.26
GAGUAGCAAUAUUACGGAAU | -2.46 ± 0.31 | -1.32 ± 0.23
GAGUAGCAAUAUUACGGAGA | -2.29 ± 0.37 | -2.12 ± 0.29
GAGUAGCAAUAUUACGGAUG | -1.42 ± 0.17 | –
GAGUAGCAAUAUUACGGUAA | -2.23 ± 0.18 | -1.25 ± 0.16
GAGUAGCAAUAUUACGGUGU | -2.71 ± 0.11 | -2.35 ± 0.18
GAGUAGCAAUAUUACGUCCA | -1.32 ± 0.14 | -0.346 ± 0.16
GAGUAGCAAUAUUACGUCCU | 0.0223 ± 0.087 | 0.18 ± 0.15
GAGUAGCAAUAUUACGUGAC | -1.42 ± 0.22 | -1.89 ± 0.39
GAGUAGCAAUAUUACGUUCG | -2.12 ± 0.15 | -0.913 ± 0.15
GAUAAGCAAUAUUACGACCG | -1.01 ± 0.18 | -0.581 ± 0.36
GAUAAGCAAUAUUACGACUU | 0.544 ± 0.08 | 0.0887 ± 0.095
GAUAAGCAAUAUUACGCAUU | -2.5 ± 0.32 | -2.26 ± 0.35
GAUAAGCAAUAUUACGCCUG | -0.902 ± 0.09 | 0.488 ± 0.13
GAUAAGCAAUAUUACGCGCC | -1.76 ± 0.17 | -1.31 ± 0.26
GAUAAGCAAUAUUACGGAAA | -2.35 ± 0.41 | -1.67 ± 0.29
GAUAAGCAAUAUUACGGAGG | -1.43 ± 0.13 | -2.92 ± 0.29
GAUAAGCAAUAUUACGGCAG | -3.5 ± 0.32 | -2.51 ± 0.33
GAUAAGCAAUAUUACGGGCC | -1.48 ± 0.17 | -1.13 ± 0.18
GAUAAGCAAUAUUACGGGGG | -3.65 ± 0.26 | -3.04 ± 0.28
GAUAAGCAAUAUUACGGGUU | -2.18 ± 0.12 | -2.26 ± 0.15
GAUAAGCAAUAUUACGGUCA | -1.71 ± 0.12 | -0.711 ± 0.11
GAUAAGCAAUAUUACGUACU | -0.466 ± 0.089 | -0.373 ± 0.12
GAUAAGCAAUAUUACGUAGC | -2.22 ± 0.13 | -0.793 ± 0.12
GAUAAGCAAUAUUACGUCUG | -2.51 ± 0.24 | -1.57 ± 0.25

Sequence | self-splicing fitness (ln) (30 °C) | self-splicing fitness (ln) (37 °C)
GAUAAGCAAUAUUACGUGGA | -3.96 ± 0.38 | -2.55 ± 0.17
GAUCAGCAAUAUUACGACUA | -0.353 ± 0.4 | -0.914 ± 0.2
GAUCAGCAAUAUUACGAUAG | -0.506 ± 0.067 | 0.475 ± 0.093
GAUCAGCAAUAUUACGAUGA | -0.0415 ± 0.095 | 0.313 ± 0.12
GAUCAGCAAUAUUACGAUUU | -0.286 ± 0.085 | 0.0945 ± 0.1
GAUCAGCAAUAUUACGCAUA | -0.521 ± 0.082 | -0.0106 ± 0.084
GAUCAGCAAUAUUACGCCGU | -0.933 ± 0.098 | -0.477 ± 0.12
GAUCAGCAAUAUUACGCGAA | -1.49 ± 0.086 | -0.586 ± 0.09
GAUCAGCAAUAUUACGCGUG | -0.471 ± 0.048 | 0.0677 ± 0.066
GAUCAGCAAUAUUACGCGUU | -2.22 ± 0.1 | -1.21 ± 0.12
GAUCAGCAAUAUUACGGACG | -0.737 ± 0.13 | -0.212 ± 0.18
GAUCAGCAAUAUUACGGAUC | -2.99 ± 0.2 | -2.49 ± 0.36
GAUCAGCAAUAUUACGGCGU | -0.292 ± 0.086 | 0.2 ± 0.1
GAUCAGCAAUAUUACGGCUU | -0.164 ± 0.092 | -0.596 ± 0.1
GAUCAGCAAUAUUACGGGCC | -0.0569 ± 0.16 | -0.311 ± 0.18
GAUCAGCAAUAUUACGGGUG | -0.356 ± 0.081 | -0.245 ± 0.094
GAUCAGCAAUAUUACGGUCU | -3.56 ± 0.21 | -1.9 ± 0.2
GAUCAGCAAUAUUACGUAAG | -1.58 ± 0.097 | -1.13 ± 0.12
GAUCAGCAAUAUUACGUCUC | -0.796 ± 0.1 | 0.0417 ± 0.13
GAUCAGCAAUAUUACGUGAA | -0.745 ± 0.062 | -0.0764 ± 0.076
GAUCAGCAAUAUUACGUGCG | -1.16 ± 0.086 | -0.336 ± 0.093
GAUCAGCAAUAUUACGUGUG | -0.908 ± 0.044 | -0.101 ± 0.06
GAUCAGCAAUAUUACGUGUU | -1.75 ± 0.06 | -1.48 ± 0.09
GAUCAGCAAUAUUACGUUAC | -2.16 ± 0.097 | -1.19 ± 0.11
GAUCAGCAAUAUUACGUUUC | -2.26 ± 0.12 | -0.791 ± 0.1

Sequence | self-splicing fitness (ln) (30 °C) | self-splicing fitness (ln) (37 °C)
GAUGAGCAAUAUUACGAAAC | -3.2 ± 0.26 | -2.43 ± 0.24
GAUGAGCAAUAUUACGAACA | -3.07 ± 0.47 | -1.54 ± 0.24
GAUGAGCAAUAUUACGACAG | -2.31 ± 0.47 | –
GAUGAGCAAUAUUACGAGUU | -2.18 ± 0.22 | -1.47 ± 0.24
GAUGAGCAAUAUUACGAUAC | -3.7 ± 0.38 | -0.654 ± 0.2
GAUGAGCAAUAUUACGAUCU | – | -1.86 ± 0.29
GAUGAGCAAUAUUACGCGAU | -3.05 ± 0.34 | -1.57 ± 0.21
GAUGAGCAAUAUUACGCGCG | -1.68 ± 0.23 | -0.518 ± 0.17
GAUGAGCAAUAUUACGCGGG | -3.55 ± 0.42 | -3.59 ± 0.47
GAUGAGCAAUAUUACGCUCC | -3 ± 0.3 | –
GAUGAGCAAUAUUACGCUUA | -2.21 ± 0.28 | -2.33 ± 0.25
GAUGAGCAAUAUUACGGAAA | – | -2.2 ± 0.31
GAUGAGCAAUAUUACGGAAC | – | 0.0424 ± 0.44
GAUGAGCAAUAUUACGGUAG | -2.01 ± 0.14 | -2.2 ± 0.21
GAUGAGCAAUAUUACGGUUC | -4.06 ± 0.33 | -2.32 ± 0.35
GAUGAGCAAUAUUACGGUUU | -2.06 ± 0.097 | -1.04 ± 0.13
GAUGAGCAAUAUUACGUGUG | -2.57 ± 0.14 | -1.45 ± 0.12
GAUGAGCAAUAUUACGUUGA | -3.32 ± 0.43 | -1.5 ± 0.2
GAUUAGCAAUAUUACGAAAC | -2.38 ± 0.16 | -1.61 ± 0.17
GAUUAGCAAUAUUACGAACA | -0.848 ± 0.21 | 0.129 ± 0.17
GAUUAGCAAUAUUACGACAC | -0.38 ± 0.17 | -1.07 ± 0.17
GAUUAGCAAUAUUACGACAU | -0.469 ± 0.014 | -0.0848 ± 0.033
GAUUAGCAAUAUUACGACUG | -0.181 ± 0.12 | -0.313 ± 0.14
GAUUAGCAAUAUUACGACUU | 0.263 ± 0.12 | -0.24 ± 0.12
GAUUAGCAAUAUUACGCAUC | -2.32 ± 0.25 | –

Sequence | self-splicing fitness (ln) (30 °C) | self-splicing fitness (ln) (37 °C)
GAUUAGCAAUAUUACGCCAG | -2.17 ± 0.32 | -0.806 ± 0.34
GAUUAGCAAUAUUACGCGCA | -0.548 ± 0.12 | 0.433 ± 0.11
GAUUAGCAAUAUUACGCGCC | -1.37 ± 0.38 | -1.2 ± 0.34
GAUUAGCAAUAUUACGCGUU | -2.52 ± 0.31 | -1.8 ± 0.34
GAUUAGCAAUAUUACGCUGC | -3.07 ± 0.24 | -2.25 ± 0.35
GAUUAGCAAUAUUACGCUUC | -3.55 ± 0.34 | -1.88 ± 0.29
GAUUAGCAAUAUUACGGACA | -1.06 ± 0.13 | 0.179 ± 0.12
GAUUAGCAAUAUUACGGAGG | -2.45 ± 0.18 | -1.81 ± 0.17
GAUUAGCAAUAUUACGGAUG | -2.07 ± 0.16 | -0.375 ± 0.15
GAUUAGCAAUAUUACGGCUG | -0.996 ± 0.067 | -0.513 ± 0.093
GAUUAGCAAUAUUACGGCUU | -0.0112 ± 0.094 | -0.0247 ± 0.11
GAUUAGCAAUAUUACGGGCA | -1.13 ± 0.13 | -0.685 ± 0.12
GAUUAGCAAUAUUACGGGUG | -1.52 ± 0.097 | -0.58 ± 0.12
GAUUAGCAAUAUUACGGGUU | -2.59 ± 0.16 | -1.14 ± 0.15
GAUUAGCAAUAUUACGUACA | -1.89 ± 0.24 | -0.352 ± 0.15
GAUUAGCAAUAUUACGUAGG | -3.05 ± 0.16 | -1.48 ± 0.15
GAUUAGCAAUAUUACGUCAC | -2.91 ± 0.28 | -2.2 ± 0.37
GAUUAGCAAUAUUACGUCCC | -0.907 ± 0.17 | -0.221 ± 0.17
GAUUAGCAAUAUUACGUCGG | -2.66 ± 0.24 | -3.05 ± 0.29
GAUUAGCAAUAUUACGUUCG | -1.94 ± 0.16 | -1.44 ± 0.13
GCAAAGCAAUAUUACGAAAU | -2.4 ± 0.12 | -1.36 ± 0.11
GCAAAGCAAUAUUACGAACA | -1.89 ± 0.14 | -1.73 ± 0.12
